Assay results reported in patent US20230357405A1.

Biological target: human PD-1 expressed on cells (CHO human PD-1 cells) (human) (UniProt Q15116)
Assay: cell-based or functional assay

Sequence of human PD-1 expressed on cells (CHO human PD-1 cells) (human) (Q15116 21-288): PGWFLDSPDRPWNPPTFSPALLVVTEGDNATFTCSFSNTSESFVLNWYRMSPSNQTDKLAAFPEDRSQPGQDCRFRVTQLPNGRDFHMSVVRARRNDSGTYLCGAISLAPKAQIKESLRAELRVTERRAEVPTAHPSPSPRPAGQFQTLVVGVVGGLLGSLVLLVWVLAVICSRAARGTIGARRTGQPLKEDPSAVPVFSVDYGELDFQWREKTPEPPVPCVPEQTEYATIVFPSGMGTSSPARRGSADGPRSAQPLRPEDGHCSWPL

B1: 1.57-4GS-MSA binder (bispecific antibody, part only; not given: mouse serum albumin binding VH, part only)
chain, part: QVQLVESGGGLVKPGGSLRLSCAASGFTFSDNSMTWMRQAPGKGLEWVSYISSGGGVIFYADSVKGRFTISRDNAKNSLYLQMNSLRADDTAVYYCAREAPLRLGESPHDAFDISGQGTMVTVSSGGGGSGGGGSGGGGSGGGGS
EC50 (M); human PD-1 reporter gene assay: 1e-08 M | EC50 (M); reporter assay: 1e-08 M
